Reference: paper PMC11650716, “Identification of a robust bacterial pyranose oxidase that displays an unusual pH dependence” (The Journal of Biological Chemistry, 2024)

Assays:
[1] = molecular target: pyranose oxidase from Oscillatoria princeps (OPOx) (Oscillatoria princeps); assay: dynamic light scattering + SEC; DLS: about 15 μM OPOx in 50 mM citrate buffer (pH 5.5), 294 K; gel permeation chromatography (Fig. S3)
[2] = molecular target: pyranose oxidase from Oscillatoria princeps (OPOx) (Oscillatoria princeps); assay: crystal structure; X-ray, 2.64 Å, space group P2(1)2(1)2(1), tetramer in the asymmetric unit; crystals with sodium sulfate as additive at pH 9.2. A low-resolution C222(1) crystal form has a dimer in the asymmetric unit and forms the tetramer through a crystallographic two-fold axis
[3] = molecular target: T1, OPOx (pyranose oxidase from Oscillatoria princeps) (Oscillatoria princeps, UniProt A0ABF7PQA8); assay: X-ray crystal structure, […] Å; assay type: binding; conditions: covalent; 8α-methyl of FAD bound to His125 NE2; crystals at pH 9.2
T1 construct: full length, 534 residues (533 also printed), N-terminal His-tag, pBAD vector, E. coli NEB 10-beta; synthetic codon-optimised gene; 61 kDa with tag; homotetramer
T1 sequence (A0ABF7PQA8 1-533): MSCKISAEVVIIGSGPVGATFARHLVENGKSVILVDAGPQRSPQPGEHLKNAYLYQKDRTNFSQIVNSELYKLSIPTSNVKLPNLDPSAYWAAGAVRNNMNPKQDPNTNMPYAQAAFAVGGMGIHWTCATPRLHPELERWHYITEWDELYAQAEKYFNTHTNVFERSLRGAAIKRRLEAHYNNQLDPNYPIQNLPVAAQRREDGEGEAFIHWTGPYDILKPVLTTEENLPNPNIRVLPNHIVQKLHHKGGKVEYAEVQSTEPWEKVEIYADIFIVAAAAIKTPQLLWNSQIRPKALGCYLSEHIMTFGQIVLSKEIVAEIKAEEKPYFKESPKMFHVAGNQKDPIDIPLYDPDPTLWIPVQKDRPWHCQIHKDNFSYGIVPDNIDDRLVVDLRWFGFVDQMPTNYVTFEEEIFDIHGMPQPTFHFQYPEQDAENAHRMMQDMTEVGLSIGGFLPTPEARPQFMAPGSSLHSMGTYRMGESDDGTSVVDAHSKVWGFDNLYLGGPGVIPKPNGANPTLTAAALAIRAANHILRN

| stoichiometry N [1] | stoichiometry N [2] | Molecule | X-ray crystal structure, 2.64 Å [3] |
| --- | --- | --- | --- |
| 4 | 4 | pyranose oxidase from Oscillatoria princeps (OPOx) (enzyme) | – |
| – | – | Cc1cc2nc3c(=O)[nH]c(=O)nc-3n(C[C@H](O)[C@H](O)[C@H](O)COP(=O)(O)OP(=O)(O)OC[C@H]3O[C@@H](n4cnc5c(N)ncnc54)[C@H](O)[C@@H]3O)c2cc1C [FAD] | crystal structure of OPOx with a covalently bound FAD cofactor per subunit |
